Biological target: MCP-1 (known wild type human MCP-1, commercial, R&D #279-MC) (human) (UniProt P13500)
Experiment: cell-based or functional assay

Sequence of UniProt P13500 (P13500 24-99): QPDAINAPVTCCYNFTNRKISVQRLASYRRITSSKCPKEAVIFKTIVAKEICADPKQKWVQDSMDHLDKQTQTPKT

inhibition of MCP-1-induced THP-1 cell migration (transwell, cells counted by FACS), IC50: 0.4 nM
inhibition of MCP-1-induced THP-1 cell migration (transwell, cells counted by FACS), percent inhibition: < 90%
Substance: MCP-1-65-Fc variant (MCP-1 splice variant MCP-1-65 fused to mutated N297A human IgG1 Fc) (Fc fusion)

— US20100166733A1
